The record followed here is patent US9144596 (UNIVERSITY OF FLORIDA RESEARCH FOUNDATION, dated 2015).

Assay [1] has as its target pol-βwt (full-length DNA polymerase β) fused to the yeast Gal4 activation domain (pGAD-C3-pol-βwt) (yeast; human, UniProt P06746 1-335). Nature of the assay: yeast two-hybrid (growth on SD-ULH medium with 5 mM 3-amino-1,2,4-triazole).
Assay [2] has as its target pol-βMut(Set-1) (T79A/K81A/R83A) fused to the yeast Gal4 activation domain (pGAD-C3-pol-βMut(Set-1)) (yeast; human, UniProt P06746 1-335). Described as above.

B1: APC(I-A,Y-A) (amino acids 1200-1324; I1259A, Y1262A) fused to the yeast Gal4 DNA-binding domain (pGBDU-C3-APC(I-A,Y-A)) (other)
chain: SSSGQSSKTEHMSSSSENTSTPSSNAKRQNQLHPSSAQSRSGQPQKAATCKVSSINQETAQTACVEDTPICFSRCSSLSSLSSAEDEIGCNQTTQEADSANTLQIAEIKEKIGTRSAEDPVSEVP
notes: also called mutant APC (I-A,Y-A); mutant DRI-domain
Take B1: in assay [1], the binding result is listed as “no binding”.

B2: APCwt (amino acids 1190-1328) fused to the yeast Gal4 DNA-binding domain (pGBDU-C3-APCwt) (other)
chain: MKLLSSIEQACDICRLKKLKCSKEKPKCAKCLKNNWECRYSPKTKRSPLTRAHLTEVESRLERLEQLFLLIFPREDLDMILKMDSLQDIKALLTGLFVQDNVNKDAVTDRLASVETDMPLTLRQHRISATSSSEESSNKGQRQLTVSSQKQSFSFSKSSSGQSSKTEHMSSSSENTSTPSSNAKRQNQLHPSSAQSRSGQPQKAATCKVSSINQETIQTYCVEDTPICFSRCSSLSSLSSAEDEIGCNQTTQEADSANTLQIAEIKEKIGTRSAEDPVSEVPAVSQ
notes: Yeast two-hybrid bait, expressed in S. cerevisiae PJ69-4A; also called APC wild-type (wt)
As for B2, in assay [2], the binding result was “no binding”.
